Measured values as given in patent US20260234269A1 (TRUEBINDING, published 2026).

T1: hGal3 peptide 4 (human)
T1 peptide: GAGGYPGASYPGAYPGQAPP

T2: hGal3 peptide 6 (human)
T2 peptide: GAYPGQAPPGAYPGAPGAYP

T3: hGal3 peptide 7 (human)
T3 peptide: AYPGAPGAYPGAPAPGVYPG

B1: 3B11.2G2 (antibody, V domains shown)
VH: QIQLVQSGPELKKPGETVKISCKTSGYKFKTYVMSWVKQAPGKALKWMGWINTYSGVPTYADDFKGRFAFSLETSASTAYLEIINLKNEDTATYFCARDGNYGDPMDYWGQGTSVTVSS
VL: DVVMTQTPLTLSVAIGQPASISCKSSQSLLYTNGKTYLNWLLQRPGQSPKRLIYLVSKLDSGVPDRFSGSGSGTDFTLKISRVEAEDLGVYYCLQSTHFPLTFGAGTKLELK
notes: murine antibody; also called 3B11.2D2
B2: 13A12.2E5 (antibody, V domains shown)
VH: QIQLVQSGPELKKPGETVKISCKTSGYKFKTYVMSWVKQAPGKALKWMGWINTYSGVPTYADDFKGRFAFSLETSASTAYLEIINLKNEDTATYFCARDGNYGDPMDYWGQGTSVTVSS
VL: DVVMTQTPLTLSVAIGQPASISCKSSQSLLYTNGKTYLNWLLQRPGQSPKRLIYLLSKLDSGVPDRFSASGSGTDFTLKISRVEAEDLGVYYCLQSTHFPLTFGAGTKLEMK
notes: murine antibody
B3: 12G5.D7 (antibody, V domains shown)
VH: QVQLKQSGAELVRPGASVKLSCKASGYTFTDYYINWVKQRPGQGLEWIARIYPGTGNTDYNEKFKGRATLTAEKSSSTAYMQLSSLTSEDSAVYFCARFAYYYGSGGYFDYWGHGTTLTVSS
VL: DILMTQSPSSMSVSLGDTVSITCHASQGINSNMGWLQQKPGKSFKGLIYHATNLEDGVPSRFSGSGSGADYSLTISSLESEDFADYYCVQYAQFPPTFGSGTKLEIK
notes: murine antibody
B4: 13H12.2F8 (antibody, V domains shown)
VH: QIQLVQSGPELKKPGETVKISCKASGYTFTTYGMSWVKQAPGKGLKWMGWINTYSGVPTYADDFKGRFAFSLETSASTAYLQINNLKNEDTATYFCAVPYEYDGAYWGQGTLVTVSA
VL: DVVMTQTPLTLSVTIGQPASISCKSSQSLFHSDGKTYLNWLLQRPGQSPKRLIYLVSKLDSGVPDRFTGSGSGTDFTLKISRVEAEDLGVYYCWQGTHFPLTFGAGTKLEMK
notes: murine antibody
B5: 14H10.2C9 (antibody, V domains shown)
VH: QIQLVQSGPELKKPGETVKISCKASGYTFTTYGMGWVKQAPGKDLKWMGWINTYSGVPTYADDFKGRFAFSLETSASTAYLQISNLKNEDTATYFCSTPYEYDGAYWGQGTLVTVSA
VL: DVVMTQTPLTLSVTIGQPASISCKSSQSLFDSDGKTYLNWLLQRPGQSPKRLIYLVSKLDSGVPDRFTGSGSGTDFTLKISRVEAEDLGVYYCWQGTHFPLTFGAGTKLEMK
notes: murine antibody
B6: 19D9.2E5 (antibody, V domains shown)
VH: QIQLVQSGPELKKPGETVKISCKASGYTFTTYGMGWVKQAPGKGLKWMGWINTYSGVPTYADDFKGRFAFSLETSTSTAYLQINNLKNEDMATYFCATPYEYDGAYWGQGTLVTVSA
VL: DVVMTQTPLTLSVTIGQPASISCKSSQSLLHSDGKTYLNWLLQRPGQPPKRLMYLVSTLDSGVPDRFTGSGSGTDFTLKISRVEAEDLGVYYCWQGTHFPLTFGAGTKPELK
notes: murine antibody
B7: 2D10.2B2 (antibody, V domains shown)
VH: QVQLQQSGPELVKPGASVKISCKASGYTFTDYYINWVKQRPGQGLEWIGWIYPGSNDTKYNEKFKGKATLTVDTSSSTAYMQLGSLTSEDSAVYFCANYFGCSGWFFDVWGTGTTVTVSS
VL: DIVMTQAAFSNPVTLGTSASISCRSSKSLLHSDGITYLYWYLQRPGQSPQLLIYRMSNLASGVPDRFSGSGSGTDFTLRISRVEAEDVGVYYCAQMIEFPLTFGAGTILELK
notes: murine antibody
B8: 4A11.2B5 (antibody, V domains shown)
VH: QVQLQQSGPELVKPGASVKISCKASGYSFTNYYIHWVKQRPGQGLEWIGWIYPGSGNTNYNEKFKGKATLTADTSSSTTNMQLSSLTSEDSAVYYCSTAPGGFDVWGSGTTVTVSS
VL: DIVMTQAAFSNPVTLGTSASISCRSSKSLLHSDGITYLYWYLQRPGQSPQLLIYRMSNLASGVPDRFSGSGSGTDFTLRISRVEAEDVGVYYCAQMLEFPLTFGAGTKLELK
notes: murine antibody; parent of IMT006-1 and IMT006-5
B9: 4G2.2G6 (antibody, V domains shown)
VH: QIQLVQSGPDLKKPGETVKISCKASGYTFTTYVMSWVKQAPGKDLKWMGWINTHSGVPTYADDFKGRFDFSLETSANTAFLQINNLKNEDTATYFCTRDGNDGDAMDNWGQGTSVTVSS
VL: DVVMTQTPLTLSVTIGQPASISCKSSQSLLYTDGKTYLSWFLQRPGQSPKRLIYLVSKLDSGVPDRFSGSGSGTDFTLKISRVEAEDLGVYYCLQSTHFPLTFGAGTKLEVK
notes: murine antibody
B10: IMT001-4 (antibody, IgG4, V domains shown)
VH: QVQLVQSGSELKKPGASVKVSCKASGYTFTNYGMNWVRQAPGQGLKWMGWINTNTGEPTYVEEFTGRFVFSLETSVSTAYLQISSLKAEDTAVYFCAPYDNFFAYWGQGTTVTVSS
VL: DIVLTQSPLSLPVTPGEPASISCRSSKSLLYKDGKTYLNWFLQKPGQSPQLLIYLMSTHASGVPDRFSGSGSGTDFTLKISRVEAEDVGVYYCQQLVDYPLTFGGGTKLEIKR
notes: also called HuIMT001-4
B11: IMT006-5 (antibody, V domains shown)
VH: QVQLVQSGAEVKKPGASVKVSCKASGYSFTNYYMHWVRQAPGQRLEWMGWIYPGSGNTNYNEKFQGRVTITADTSASTAYMELSSLRSEDTAVYYCSTAPGGFDVWGQGTTVTVSS
VL: DIVMTQTPLSLSVTPGQPASISCKSSKSLLHSDGITYLYWYLQKPGQSPQLLIYRMSNLASGVPDRFSGSGSGTDFTLKISRVEAEDVGVYYCAQMLEFPLTFGQGTKLEIKR
notes: humanized antibody derived from 4A11.2B5
B12: IMT006-1 (antibody, V domains shown)
VH: QVQLVQSGAEVKKPGASVKVSCKASGYSFTNYYMHWVRQAPGQGLEWMGWIYPGSGNTNYNEKFQGRVTMTADTSISTAYMELSRLRSDDTAVYYCSTAPGGFDVWGQGTTVTVSS
VL: DIVMTQTPLSLSVTPGQPASISCKSSKSLLHSDGITYLYWYLQKPGQSPQLLIYRMSNLASGVPDRFSGSGSGTDFTLKISRVEAEDVGVYYCAQMLEFPLTFGQGTKLEIKR
notes: humanized antibody derived from 4A11.2B5; also called HuIMT006-1
B13: IMT006-8 (antibody, V domains shown)
VH: QVQLVQSGAEVKKPGASVKVSCKASGYSFTNYYIHWVRQAPGQRLEWMGWIYPGSGNTNYNEKFQGRVTLTADTSASTTYMELSSLRSEDTAVYYCSTAPGGFDVWGQGTTVTVSS
VL: DIVMTQSPLSLPVTPGEPASISCRSSKSLLHSDGITYLYWYLQKPGQSPQLLIYRMSNLASGVPDRFSGSGSGTDFTLKISRVEAEDVGVYYCAQMLEFPLTFGQGTKLEIKR
notes: humanized antibody
B14: 846T.1H2 (antibody, V domains shown)
VH: QIQLVQSGPELKKPGETVKISCKASGYTFTNYGMNWVKQAPGKGLKWMGWINTNTGEPTYAEEFKGRFAFSLETSASTAYLQINNLKNEDTATYFCATGGGNWDFDYWGQGTTLTVSS
VL: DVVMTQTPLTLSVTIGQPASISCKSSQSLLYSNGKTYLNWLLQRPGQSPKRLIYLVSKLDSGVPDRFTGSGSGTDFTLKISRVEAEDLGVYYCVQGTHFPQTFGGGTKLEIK
notes: murine antibody
B15: 846.2H3 (antibody, V domains shown)
VH: QIQLVQSGPELKKPGETVKISCKASGYTFTNYGMNWVKQAPGKGLKWMGWINTYTGEPSYADDFKGRFAFSLETSASTAYLQINNLKNEDMATYFCARWGGYDGDYYAMDYWGQGTSVTVSS
VL: NIMMTQSPSSLAVSAGEKVTMSCKSSQSVLYSSNQKNYLAWYQQKPGQSPKLLIYWASTRESGVPDRFTGSGSGTDFTLTISSVQPEDLAVYYCHQYLSSLTFGAGTKLELK
notes: murine antibody
B16: 846.1F5 (antibody, V domains shown)
VH: QIQLVQSGPELKKPGETVKISCKASGYTFTNYGMNWVKQAPGKGLKWMGWINTYTGEPSYADDFKGRFAFSLETSASTAYLQINNLKNEDMATYFCARWGGYDGDYYAMDYWGQGTSVTVSS
VL: NIMMTQSPSSLAVSAGEKVTMSCKSSQSVLYSSNQKNYLAWYQQKPGQSPKLLIYWASTRESGVPDRFTGSGSGTDFTLTISSVQPEDLAVYYCHQYLSSLTFGAGTKLELK
notes: murine antibody
B17: 19B5.2E6 (antibody, V domains shown)
VH: QIQLVQSGPELKKPGETVKISCKASGYTFTTYAMSWVKQAPGKGLKWMGWINTYSGVPTYADDLKGRFAFSLETSASTAYLQINNLKNEDTATYFCARGPYAMDYWGQGTSVTVSS
VL: DIQMTQTTSSLSASLGDRVTISCSASQGINNYLNWYQQKPDGTVKLLIYYASSLHSGVPSRFSGSGSGTDYSLTISNLEPEDIATYYCQQYSQVPYTFGSGTKLEIK
notes: murine antibody
B18: 6H6.2D6 (antibody, V domains shown)
VH: QIQLVQSGPELKKPGETVKISCKASGYTFTTYGMSWVKQAPGKGLKWMAWINTYSGVPTYADDFKGRFAFSLETSASTAYLQINNLTNEDTATYFCARGPYAMDYWGQGTSVTVSS
VL: DIQMTQTTSSLSASLGDRVTISCSASQGISNYLNWYQQKPDGTVKLLIYYTSSLHSGVPSRFSGSGSGTDYSLTISNLEPEDIATYYCQQYSELPYTFGSGTKLEIK
notes: murine antibody
B19: 20H5.A3 (antibody, V domains shown)
VH: QIQLVQSGPELKKPGESVKISCKASGYAFTTYGMSWVQQAPGKGLKWMGWVNTYSGVPTCADDFKGRFAFSLETSASTAYLQINNLRNEDTATYFCARGPYAMDYWGQGTSVTVSS
VL: DIQMTQTTSSLSASLGDRVTINCSASQDISNYLNWYQQKPDGTVKLLIYYTSSLLSGVPSRFSGSGSGTDYSLTISNLEPEDIATYFCQQYSKLPYTFGSGTHLEIK
notes: murine antibody
B20: 23H9.2E4 (antibody, V domains shown)
VH: QIQLVQSGPELKKPGETVKISCKASGYTFTTYAMSWVKQAPGKGLKWMGWINTYSGVPTYADDLKGRFAFSLETSASTAYLQINNLKNEDTATYFCARGPYAMDYWGQGTSVTVSS
VL: DIQMTQTTSSLSASLGDRVTISCSASQGINNYLNWYQQKPDGTVKLLIYYASSLHSGVPSRFSGSGSGTDYSLTISNLEPEDIATYYCQQYSQVPYTFGSGTKLEIK
notes: murine antibody

Experiments:
[1] = biological target: T1, hGal3 peptide 4; assay: peptide ELISA, 20-mer library (Epitope Mapping)
[2] = biological target: T2, hGal3 peptide 6; assay: peptide ELISA, 20-mer library (Epitope Mapping)
[3] = biological target: T4, Human Galectin-3 protein (Acro Biosystems, GA3-H5129) (human, UniProt P17931 2-250); assay: ELISA, hGal3 coated, antibody 3 ug/mL, competitor hTIM3
T4 construct: Bought protein; also called hGal3; Gal3; not shown: linker-spaced 6-histidine tag
T4 sequence (P17931 2-250): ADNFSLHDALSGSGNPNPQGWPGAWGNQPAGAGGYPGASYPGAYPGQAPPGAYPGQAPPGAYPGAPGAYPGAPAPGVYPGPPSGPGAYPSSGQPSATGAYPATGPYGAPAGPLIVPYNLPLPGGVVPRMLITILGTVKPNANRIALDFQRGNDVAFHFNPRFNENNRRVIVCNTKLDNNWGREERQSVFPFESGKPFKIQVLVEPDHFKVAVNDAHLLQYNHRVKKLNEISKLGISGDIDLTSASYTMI

[4] = biological target: T4, Human Galectin-3 protein (Acro …); assay: SPR Biacore T200, antibody captured, Galectin-3 analyte
[5] = biological target: T4, Human Galectin-3 protein (Acro …); assay: ELISA, hGal3 coated, competitor hTIM3 (FIG. 24)
[6] = biological target: T3, hGal3 peptide 7; assay: peptide ELISA, 20-mer library (Epitope Mapping)
[7] = biological target: T4, Human Galectin-3 protein (Acro …); assay: ELISA titration, blocking of GAL3-TIM3; competitor TIM3

Row | Binder | binding result [1] | binding result [2] | GAL3-TIM3 Blocking @ 3 ug/mL [3] | Kd [4] | reduction of TIM3-GAL3 binding [5] | binding result [6] | IC50 [7]
1 | B1 | binds | binds | 33% | < 1 nM | – | – | –
2 | B2 | binds | binds | 35% | 8.2 nM | – | – | –
3 | B3 | – | – | 12% | 1.9 nM | ≤ 25% | – | –
4 | B4 | – | binds | 57% | 6.07 nM | – | binds | –
5 | B5 | – | binds | 44% | 0.562 nM | – | binds | –
6 | B6 | – | binds | 34% | < 1 nM | – | binds | –
7 | B7 | – | binds | 86% | 0.753 nM | – | – | –
8 | B8 | – | binds | 48% | 5.22 nM | – | – | –
9 | B9 | binds | – | 48% | < 1 nM | – | – | –
10 | B10 | – | – | – | – | – | – | 5.6 nM
11 | B11 | – | – | – | – | – | – | 4.1 nM
12 | B12 | – | – | – | – | – | – | 26.5 nM
13 | B13 | – | – | – | – | – | – | 2.8 nM
14 | B14 | – | – | 81% | 2.82 nM | – | – | –
15 | B15 | – | – | 100% | 10.2 nM | – | – | –
16 | B16 | – | – | 90% | 2.73 nM | – | – | –
17 | B17 | – | – | 61% | < 1 nM | – | – | –
18 | B18 | – | – | 82% | 4.86 nM | – | – | –
19 | B19 | – | – | 81% | 3.95 nM | – | – | –
20 | B20 | – | – | 80% | 4.26 nM | – | – | –
